Assay results: the nanobody polyreactivity screen of Harvey et al. (2022)

Assay: yeast display, Sf9 membrane polyspecificity reagent, FACS + sequencing; frameworks hold sequencing errors
Procedure, shortened: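 A nanobody's polyreactivity label depends on the gate it was sorted from. Yeast display cells were stained with 10% biotinylated, detergent-solubilized Sf9 membrane reagent for 1 hour at 4 °C, enriched on streptavidin microbeads and sorted by FACS. The low and high (top ~1%) gates were set on anti-HA fluorescence for expression and streptavidin fluorescence for reagent binding.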

| Sequence | polyreactivity (PSR sort gate) |
| --- | --- |
| QVQLVESGGGLVQARGSLRLSCAASGSTFYAYVMGWYRQATGKERELVAAISKGGGSTYYADSVKGRFTISRDNAKNTVYLQMNSLKPEDTAVYYSAAYASYSNYRKYNYWGQGTQVTVSS | high polyreactivity |
| QVQLVESGGGLVQAGGSLRLSCAASGSTFQVYAMGWYRQAPGKERELVASITSGGITYYADSVKGRFTISRDNAKNTVYLQMNSLKPEDTAVYYCAVDIRQSGELQRLFLYDYWGQGTQVTVSS | low polyreactivity |
| QVQLVESGGGLVQAGGRLRLSCAASGLIFTWNAMGWYRQAPGKERELVAAISTGGSTSYADSVKGRFTISRDNAMNTVYLQMNSMKPEDTAVYYCARDSSIWSHGSWYDYWGQGTQVTVSS | low polyreactivity |
| QVQLVESGGGLVQAGGSLRLSCAASGITFAWYAMGWYRQAPGKEREFVAAITGSGGRTYYADSVKGRFTISRDIAKNTVYLQMNSLKPEDTAVYYCATASSVSGARYDYCGQGTQVTVSS | high polyreactivity |
| QVQLVESGGGLVQAGGSLRLSCAASGRIFGFNARGWYRQAPGKERELVAGITDSSGRTNYADSVKGRFTISRDNAKNTVYLQMNSLKPEDTAVYYCARRRFGQYTERYYWGQGTQVTVSS | low polyreactivity |
| QVQLVESGGGLVQAGGSLRLSCAASGSTFYRYAMGWYRQAPGKERELVAAISGSGGRTYYADSVKGRFTISRDNAKNTVYLQMNSLKPEDTAVYYCATRFGQRSDYWGQGTQVTVSS | high polyreactivity |
| QVQLVESGGGLVQAGGSLRLSCAASGSTFSFNAMGWYRQAPGKERELVAAISYSDSTTYYADSVKGRFTISRDNAKNTVYLQMNSLKPEDTAVYYCAAETGPYYRFGGDYWGQGTQVTVSS | high polyreactivity |
| QVQLVESGGGLVQAGGSLRLSCAASGFTFTQYAMGWYGQAPGKEREFVAAITASGGSTYYADSVKGRFTISRDNAKNTVYLQMNSLKPEDTAVYYCAAKGRPDGKYDYWGQGTQVTVSS | high polyreactivity |
| QVQIVESGGGLVQAGGSLRLSCAASGSTFLTNTMGWYRQAPGKERELVAAITLRGGRTYYADSVKGRFTISRDNAKNTVYLQMNSLRPEDTAVYYCNARNYYYPSDRDYWGQGTQVTVSS | low polyreactivity |
| QVQLVESGGGLVQAGGSLRLSCAPSGITFQRYVMGWYRQAPGKERELVAAISFSGSSTYYADSVKGRFTISRDNAKNTVYLQMNSLKPEDTAVYYCAADGSVPKYVPYPRYYGYGYWGQGSQVTVSS | high polyreactivity |
| QVHLVESGGGLVQARVSLRLSCAASGSTFFVYTMGWYRQAPGKETEFVATIRRGGNTYADSVKGRFTISRDNAKNSVYLQMNSLKPEDTAVYFCAVVVYQGFRSKYYYWGQGTQVTVSS | high polyreactivity |
| QVQLVESGGGLVQAGGSLRLSCAASGGIFDTYAMGWYRQEPGKERELVAAISRRGGNTYYADSVKGRFTISRDNAKNTVYLQMNSLKPEDTAVYYCAAYYHGRMDYWGQGTQVTVSS | high polyreactivity |
| QVQLVESGGGLVQAGGSLRLSCAASGRTFTWYAMGWYRQAPGKERELVAVISRGGSTNYADSVKGRFTISRDNAKNTVYLQMKSLKPEDTAVYYCAARGLYRARLKLDYWGQGTQVTVSS | high polyreactivity |
| QLQLVESGGGLVQAGGSLRLSCAASGFTFWGYTIGWYRPAPGKERQLVAGITLSGGSTYYADSVKGRFTISRDNAKNTVYLQMNSLKPEDTAVYYCAAKPYQVSSYDFSLRDYWGQGTQVTVSS | low polyreactivity |
| QVQLVESGGGLVQAGGSLRLSCAASGLIFWGYTMGWYRQAPGKERELVAAISRRGGRTYYADSVKGRFTISRDNAKNTVYLQMNSLKPEDTAVYYCNADITSSGPKSDYWGQGTQVTVSS | high polyreactivity |
| QVQLVESGGGLVQAGGSLRLSCAASGSIFSSYAMGWYRQAPGKERELVAAITSGGSTYYADSVKGRFTISRDNAKNTVYLLMNSLKPEDTAVYYCAARQVRTSILHMGYWGQGTQVTVSS | low polyreactivity |
| QVQLVESGGGLVQAGGSLRLSCAASGGIFDSYAMGWYRQAPGKERELVADITWSGGSTYYADSVKGSFTISRDNAKNTVYLQMNSLKPEDTAVYLCAAVWNSPYDYWGQGTLVTVSS | low polyreactivity |
| QVQLVESGGGLVQAGGSLSLSCAASGFTFGSNDMGWYRQAPGKERELVAAIDGSGDTYYADSVKGRFTISRDNAKNTVYLQMNSLKPEDTAVYYCARDDNPIYSGVTYDYWGQGTQVTVSS | low polyreactivity |
| QVQLVESCGGLVQAGGSLRLSCAASGSIFAYYAMGWYRQAPGKERDLVAAISRGGGSTYYADSVTGRFTLSRDNAKNTVYLQMNSLKQEDTAVYYCDAYYAKGRAYDYDYWGQGTQVTVSS | high polyreactivity |
| QVQLVESGGGLVQAGGSLRLSCAASVRIFFRYAMGWYRQAPGKERELVAAIRKSGGSTYYADSVKGRFTISRDNAKNTVYFQMNSLKPEDTAVYYCAADVYYYYGRKYNYWGQGTQVTVSS | low polyreactivity |
| KVQLVESGGGLVQAGGSLRLSCAASGSTFQYYAMGWYRQAPGTERELVAAITSGGSTNYADSVKGRFTISRDNAKNTVYLQMNSLKPEDTAVYYCNADSSGWFPFDYWGQGTQVTVSS | low polyreactivity |
| QVQLVESGRGLVQAGGSLRISCAASGFTFRKYTMGWNRQAPGKERELVAAISRRGGSTYYADSVKSRFTISRDNAKNTVYLQMNSLKPEVTAVYYCATDHIPSVGVDYWGQGTQVTVSS | high polyreactivity |
| QVQLVESGGGLVQAGGSLRLSCAASGSTFTVNGMGWYRQAPGKERELVASITWSGGSTYYADSVKGRFTISRDNAKISVYLHMTSLIPEDTAVYYCAADEKLYITGYDYWGQGTQVTVSS | low polyreactivity |
| QVQLVESGGGLVQAGGSLRLRCDASGRIFISYTMGWSRPPPGKERELVAGIDSSGTSTYYADSVKGRFTISRDNAKNTVYLLMNSLKPEDNADYYCNVDGYWKDTSTEMVYWGQGTQVTVSS | low polyreactivity |
| KVQLVESGGGLVQAGGRLRISCAASGRICYSNVMGWSRQAPGKERELVAAIFSGGSTYYADSVKGRFTISRDNAKNTVYLQMNSLKPEDTAVYDCAADYYYPFDYWGQGTQVTVSS | low polyreactivity |
| QVQLEESGGGLVKAGGSLRLSSAASGITIGIYLIGWYRQAPGTESEFVATISRSDDNTYYADSVMGRFTISRDNAKNTVYLQMNSLKPEDSAVYYCPADGVISAWYSSRDDYWGKGTQVTVSS | low polyreactivity |
| QVQLVESGGGLVQAGGSLRLSCADSGGIFDWNDMGWYRHEPGKESELVAAITSGGVTYYADSVKGRFTISRDNAKNTVYLQMNSLIPDDTSVFYCATGYWGLWYGYDSWGQGTQVTVSS | low polyreactivity |
| QVQLVESGGGLVQAGGSLRLSCAASGSTFHPNAMGWYRQAPVKERELVAAISRGGSTNYADSVKGRFTISRDNAKNTVYLQMISLKPEDSAVYYCAKDFFGISSDPVVMDYWGQGTQVTVSS | low polyreactivity |
| QVQLVESGGGLVQAGGSLRLSCAASGFTFVYYAMGWYRQAPGKERELVAGISSSAGSTYYADSVKGRFTISRDNAKNTVYLQMNSLKPEDTAVYYCNAEYYWWPFDYWGQGTQVTVSS | high polyreactivity |
| QVQLVESGGGLVQAGGSLRLSCAAAGFIFWSNAMGWYRQAPGKERELVAAIRNTGSTNYADSVKGRFTISRDNAKNTVYLQMNSLKPEDTAVYYCATKPYPYYLYYYWGQGTQVTVSS | high polyreactivity |
